Laboratory results reported in the nanobody polyreactivity screen of Harvey et al. (2022).

Assay: yeast display, Sf9 membrane polyspecificity reagent, FACS + sequencing; frameworks hold sequencing errors
In short: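 Nanobodies from a synthetic yeast display library (Saccharomyces cerevisiae BJ5465), induced 36–48 hours with galactose, were stained 1 hour at 4 °C with 10% biotinylated, detergent-solubilized Sf9 membrane reagent, enriched on streptavidin microbeads, then FACS-sorted. Anti-HA (expression) and streptavidin (reagent binding) fluorescence set low and high (top ~1%) gates. Polyreactivity labels come from the gate of origin. Genes were colony-PCR amplified, MiSeq 2 × 250 sequenced and filtered by CDR length.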

## QVQLVESGGGLVLAGGSLRLSCAASGSIFWVNAMGWYRQAPGKERELVAAINYSDGSTSYADSVKGRFTISRDIAKNTVYLQMNSLKPEDTAVYYCNAESFELMYYWGQGTQVTVSS
  polyreactivity (PSR sort gate): low polyreactivity

## QVQLEESVGGLVQAGGSLRLSCAASGSIFSPNAMGSYRQAPGKERELVAAISSNGDSTYYADSVKGRFTISRDNAMNTVYLQMNSLKPEDTAVYYCAAVSIGPGEYDYWGQGTQVTVSS
  polyreactivity (PSR sort gate): low polyreactivity

## QVQLVESGGGLVQAGGRLRLSCAASGRTFYVYAMGWYRQAPGKERELVAAISWTGGSTYYADSVKGRFTISRDHAKNTVYLQMNSLKPEDTAVYDCAVDVYRRDYVAYEYWGQGTQVTVSS
  polyreactivity (PSR sort gate): high polyreactivity

## QVQLVESGGGLVQAGGSLRLSCAASGYTFGVYVMGWYRQAPGKERELVAAISGSTYYADSVKGRFTISRDNAKNTVYLQMNSLKPEDTAVYYCNADYYRSVLIIGVYEYDYWGQGTHVTVSS
  polyreactivity (PSR sort gate): low polyreactivity

## QVQLVESGGGLVQAVGSLRLSCAASGRTFYYYAMGWYRQAPGKERELVASITYYADSVKGRFTISRDNAKNTVYLQMKSLKPEDTAVYYCAARANSYHSFTSHYDYWGQGTQVSVSS
  polyreactivity (PSR sort gate): low polyreactivity

## QVQLVESGGGLVQAGGSLRLSCAASGRTFSTYAMGWYRQAPGKEREMVAAISSGGGRTYYADSVKGRFTISRDYAKNTVYLQMNSLKPEDTAVYYSAADGYLRSRHGDYWGQGTQVTVSS
  polyreactivity (PSR sort gate): low polyreactivity

## QVQLVESGGGLVQAGGSLRLSCAASGSIFYGYAMGWYRQAPGKERELVAAINWSGGGTYYADSVKGRFTISRDNAKNTVYLQMNSLKPEDTAVYYCAAGHVVRRPYLIYDYWGQGTQVTVSS
  polyreactivity (PSR sort gate): high polyreactivity

## QDQHVESGGGLVQAGGSLRLSCAASGLTFGTYAKGWYRQAPGKERELVAAITTGARTYFADSVKGRFTISRDNAKNTVYLKMNSLKPEDTAVYYCAAYKFYSEYEYWGQGTQVTVSS
  polyreactivity (PSR sort gate): high polyreactivity

## QVQLVESGGGLVQAGGSLRLSCAASGSTFDDYAMGWYRQAPGKERELVAAISYSGGSTYYADSVKGRFTISRDNAKNTVYLQMNSLKPEDTAVYYCAADDLYTDYETWWRRGDYCGQGTQVTVSS
  polyreactivity (PSR sort gate): low polyreactivity

## QVQLVESGGGLVQAGGSLRLSCAASGSIFYPNVMGWYRQAPGKERELVATISWSGGNTYYADSVKGRFTISRDNAKNTVYLQMNSLKPEDTAVYYCAADQWSQDYDYWGQGTQVTVSS
  polyreactivity (PSR sort gate): low polyreactivity

## QVQLVESGGGLVQAGGSLRLSCAASGSIFQKYTMGWYRQAPGKERELVAAITRSGGSTYYADSVKGRFTISRDNAKNTVYLQMNSLKPEDSAVYYCNKRYIPWAYDYWGQGTQVTVSS
  polyreactivity (PSR sort gate): high polyreactivity

## QVQLVESGGGLVQAGGSLRLSCAASGSIFGGYAMGWYRQAPGKERELVAAISSGGSTYYADSVKGRFTISRDNAKNTVYLQMNSLKPEDTAVYYCATSTYADRRNSYYYTRPRFGYWGQGTQVTVSS
  polyreactivity (PSR sort gate): high polyreactivity

## QVQLVESGGGLVQAGGSLRLSCAASGFTIRRNAMGWYRQAPGKERELVAAISRSGGSTYADSVKGRFTISRDNAKNTVYLQMNSLKPEDTAVYYFASDHSYYRYTYTALIAEFYYWGQGTQVTVSS
  polyreactivity (PSR sort gate): low polyreactivity

## QVQLVESGGGLVQAGGSLRLSCAASGLTFPYNVMGWYRQAPGKERELVASITSVGTTDYADSVKGRFTISRDNAKNTVSVLMNSLKPEVTAVYYCAADVTLFYWWYGKEDYDYWGQGTQVTVSS
  polyreactivity (PSR sort gate): low polyreactivity

## QVQLVESGGGLVQAGGSLRLSCAASGSIFFPYAMGWYRQAPGKERELVAAISWRGGITYYADSVKGRFTISRDNAKNTVYLQMNSLKPEDTAVYYCAADGPYTGDGALDYWGQGTQVTVSS
  polyreactivity (PSR sort gate): high polyreactivity

## QVHLVESVGGLVQAGGSLRLSCTASGSTCVAYDMGWYRQAPGQERDLVAAITSSGGRTYYADSVKGRFKFSLDNAMNTVYLQMNSLKPEDTAVYYCAAVTHGRYDWGQGPQVTVSS
  polyreactivity (PSR sort gate): high polyreactivity

## QVQLVESGGGLVQARGSLRLSCAATGSTLSFYAMVWYRQAPGKERELVAAISYSTGTTYYADSVKGRFTISRDNAKNTVYLQMNSLKPEDTAVYYCNAVGTGGYSSEYGYWGQGTQVTVSS
  polyreactivity (PSR sort gate): high polyreactivity

## QVQLVESGGCLVQAGGSLRLSCAASGFTFPGNAMGWYRQAPGKERELVAAMSASGGKTYYADSVKGRFTISRDNAKNTVYLQMNSLKPEDTAVYYCAAVVAFATGTYYYWGQGTQVTVSS
  polyreactivity (PSR sort gate): high polyreactivity

## QVQLVESGGVLVQAGGSLRLSCAASGRIFSAYAMGWYRPAPGKERDLVAAITSVGSTKYADYVKGRFTISRDNAKNTVYLQMNSLKPQDTAVYYCAAEYTRSFYIYYRFGYWGQGTQVTVSS
  polyreactivity (PSR sort gate): high polyreactivity

## QVQLVESGGGLVQAGGSLRLSCAASGSNLGLYAMGWYRQAPGKERELVAAISSGGSTYYADSVKGRFTISRDNAKNTVYLQMNSLKPEDTAVYYCAADLSLSRVVFGDYDYWGQGTQVTVSS
  polyreactivity (PSR sort gate): low polyreactivity

## QVQLVESGGRLVQAGGSLRLSCADSGSIFEYYAMGWYRQAPGKEREFVAAISDNGDSTYYADSVKGRFTISRDNAKNTVYLQMNSLKPEDTEVYYCNKTPVDDPPWCYDSWGQGTQVTVSS
  polyreactivity (PSR sort gate): low polyreactivity

## QVQLVESGVGLVQAGGSLRLSCAASGSIFLTYDMGWYRPAPGKERELVAAITGSGDSTYYADSVKGRFTISRDNAKNTVYLQMNSLKPEDTAVYYCNTLVGVDFWLVDYWGQGTQVTLSS
  polyreactivity (PSR sort gate): low polyreactivity

## QVQLVESGGGLVQAGGSLRLSCAASGRTFAYYAMGWYRQAPGKERELVATITWNGGSTYYADSVKGRFTISRDNAKNTVYLQMNSLKPEDTAVYYCAVRLWFDYNYWGQGTQVTVSS
  polyreactivity (PSR sort gate): low polyreactivity

## QVQLVESGGGLVQAGGSLRLSCAASGSIFYQYAMGWYRQAPGKERELVARITWSSGSTYYADSVKGRFTISRDNAKNTVYLQMNSLKPEDTAVYYCNVVYTGTSYIYYYWGQGTQVTVSS
  polyreactivity (PSR sort gate): high polyreactivity

## QVQLVESGGGLVQAGGSLRLSCAASGSIFWWNAMGWYRQAPGKERELVAAISYSGGSTYYADSVKGRFTISRDNAKKTVYLQRNSLKPEDTAVYYCAATKFRYYGYDYWGQGTQVTVSS
  polyreactivity (PSR sort gate): low polyreactivity

## QVQLVESGGGLVQAGGSLRLSCAASGSTFSHYAMGWYRQAPGKERELVAAISTSGGSTYYADSVKGRFTISRDNAKNTVYLQMNSLKPEDTAVYYCAAAVPRQGNYGGYEYWGQGSQVTVSS
  polyreactivity (PSR sort gate): high polyreactivity

## QDQLVESGGGLVPAVGSLRLTCAASGYTFWDYTMGLYRQAPGKERELGAAMSSSGSSTYYADSVKGRFTISRDNAKNTVYLQMNSLKPEDNAVYYCAAYSRRQWKYDYWGQGTHVTVSS
  polyreactivity (PSR sort gate): high polyreactivity

## QVQLVESGGGLVQAGGSLRLSCAASGSIFWWYAMGWYRQAPGKERELVAAIRWSGTTTFYADSLKGRFTISRDNAKNNVFLQMKSLKPEDTAVYYCNAEGGIWGVTSGYDYWGQGTQVTVSS
  polyreactivity (PSR sort gate): low polyreactivity

## QVQLVESGGGLVQAGGSLRLSCAASGSTYPGNAMGWYRQAPGNERELVALINDGADTNYADSVKGRFTISRDNAKNTVYLQMNSLKPEDTAVYYCAKRSLYPTYDYWGQGTQVTVSS
  polyreactivity (PSR sort gate): low polyreactivity

## QVQLVESGGGLVQAGGSLRLSCAASGRIFDDNAMGWYRQAHGKERELVATISSTGGRTYYADSVKGRFTISRDNAKKTVYLQMNSLKPEDTAVYYCAARRLQGGYYYWGQGTQVTVSS
  polyreactivity (PSR sort gate): high polyreactivity

## QVQLVESGGGLVQAGGSLRLSCAASGFTIWQNAMGWYRQAPGKERELVAGIRLSGGSTYADSVKGRFTISRDNAKNTVYLQMNSLKAEDTAVYYCNAAYKNSPYDYWGQGTQVTVSS
  polyreactivity (PSR sort gate): high polyreactivity

## QVQLVDSGGGLVQAGGSLRLSCAASGRIFGRYAMGWSRQAPGKESELVASITYRGGGTYYADSVKGRFTISRDNAKNTVYLQMNSLKPEDTAVYYCNAYFAGVLRRNYRGQGTQVTVSS
  polyreactivity (PSR sort gate): high polyreactivity

## QVQLVESGGGLVQAGGSLRLSCAASGFIFNDYAMGWYRQAPGKERELVAAISRSGGSTYYADSVKGRFTISRDNAKNTVYLQMNSLKAEDTAVYYCAADGLSGYRYYYWGQGTQVTVSS
  polyreactivity (PSR sort gate): high polyreactivity

## QVQLVESGGGLVQAGGSLRLTCAASGSTFSPYAMGWYRQATGKERELVAAISASGGGTYYADSVKGRFTISRDYAKNTVYLQMNRLIPVDTAVYYCARDYGWDISKGRYGYWGQGTQVTVSS
  polyreactivity (PSR sort gate): low polyreactivity

## QDQLVESGGGLVQAGGSLRLSCAASGLNFRFYAMGWYRTATGKERELVAAISSRGGSTYYAHSVKGRFTISRDNSKNTFYLQMISLKPEDTWVYYCAADYGDEYEYCGQGTQVTVSS
  polyreactivity (PSR sort gate): high polyreactivity

## QVQLVESGVCLVQAGGSLLLSCAASRRIFRNAMGWYRHAPGKERELVAAISSGGTTNYADSVKGRFTISRDNAKNTVYLLMNSLKPEDTAVYYCAAAPSSYRYRYVVFTFGYWGQGTQVTVSS
  polyreactivity (PSR sort gate): high polyreactivity

## QVQLVESGGGLVQAGGSLRLSCAASGFTISKYAMGWYRQAPGKERELVAVISSGGRTNYADSVKGRFTISRDNAKNTVYLQMNSLKPEDTAVDYCAAIGWRTRSRFEYWGQGTQVTVSS
  polyreactivity (PSR sort gate): high polyreactivity

## QVQLVESGGGLVQAGGSLRLSCAASGSIFNYNDMGWYRQAPGKERELVAAIDSSGTSTYYADSVKGRFTISRDNAKNTVYLQMNSLKPEDTAVYYCNADSSLGFGYWGQGTLVTVSS
  polyreactivity (PSR sort gate): low polyreactivity

## QVQLVESGGGLVQAGGSLRLSFAASGSTFGLNAMGWYRQAPGKERELVAAITRSDITNYADSVKGRFTISRDNAKNTVYLQMNSLKPEDTAVYYCNKTPDRHRRYFGYGYWGQGTQVTVSS
  polyreactivity (PSR sort gate): low polyreactivity

## QVQLVESGGGLVQAGGSLRLSCAASGSTIVVYAMGWYRQAPGKARELVAAITTSDDSTYYADSVKGRFTISRDNAKNTVYLQMNSLKPEDTAVYYCAATLRWQDGYSGQGTQVTVSS
  polyreactivity (PSR sort gate): low polyreactivity

## QVQLVESGGGLVQAGGSLRLSCAASGSTFKGNAMGWYRQAPGKERELVAAINRSGTSTYYADSVKGRFTISRDNAKNTVYLQMNSLKPEDTAVYYCAADKAPYSTEGDSWGQGTQVTVSS
  polyreactivity (PSR sort gate): high polyreactivity

## QVQLVESAGGLVQAGGSLRLSCAASGRTFCGNAMGWYRQAPGKERELVAAITSGGSTYYADSVKGRFTISRDNAKNTVYLQMNSLKPEDTAVYYCATRRIYKWYRYYYWGQGTQVTVSS
  polyreactivity (PSR sort gate): high polyreactivity

## QVQLVESGGGLVQAGGSLRLSCAASGRTFGIYAMGWYRQAPGKEREMVAAISRGGNTYADSVKGRFTISRDNAKNTVYLQMNSLKQEDTAVYYCAAYSSYYVHRFQHYDYWGQGTQVTVSS
  polyreactivity (PSR sort gate): high polyreactivity
